# Laboratory results reported in patent publication US20030129189A1, “Tumor necrosis factor-gamma” (priority 1994, published 2003).
# Where two headings read alike, the source gives them in different places.
# T1: TNF-gamma-beta (Homo sapiens, UniProt O95150)
# T1 construct: made in house; host or cells: 293T cells, transient transfection
# T1 sequence (O95150 72-251 limits assumed): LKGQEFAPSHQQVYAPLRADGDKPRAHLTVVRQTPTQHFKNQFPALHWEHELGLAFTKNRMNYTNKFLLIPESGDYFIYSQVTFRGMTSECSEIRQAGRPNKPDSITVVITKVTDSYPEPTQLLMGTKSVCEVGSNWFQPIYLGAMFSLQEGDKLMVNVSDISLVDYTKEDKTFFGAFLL
# T2: TNF-gamma-beta (Homo sapiens, UniProt O95150)
# T2 construct: made in house; host or cells: E. coli (untagged) or 293T (FLAG-tagged)
# T2 sequence (O95150 72-251): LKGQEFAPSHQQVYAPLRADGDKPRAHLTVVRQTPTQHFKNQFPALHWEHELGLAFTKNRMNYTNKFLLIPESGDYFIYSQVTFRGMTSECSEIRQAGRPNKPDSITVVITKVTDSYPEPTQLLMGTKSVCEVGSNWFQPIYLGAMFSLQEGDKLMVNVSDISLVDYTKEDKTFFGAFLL
# T3: TNF-gamma-beta (Homo sapiens, UniProt O95150)
# T3 construct: expressed in transfected cells
# T3 sequence (O95150 1-251): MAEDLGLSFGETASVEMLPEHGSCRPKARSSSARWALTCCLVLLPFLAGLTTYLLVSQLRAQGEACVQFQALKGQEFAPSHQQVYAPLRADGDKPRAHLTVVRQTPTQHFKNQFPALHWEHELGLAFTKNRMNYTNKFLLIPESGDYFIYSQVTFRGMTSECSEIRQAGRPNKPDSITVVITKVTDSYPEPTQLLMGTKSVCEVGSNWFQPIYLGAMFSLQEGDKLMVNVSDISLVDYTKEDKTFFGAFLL
# How the values were obtained:
# DR3 = test: FACS binding of FLAG-tagged soluble TL1β to cells transfected with DR3; design: species or system human
# Protocol: A FLAG-tagged soluble form of the TL1 (aa 72-251) protein was tested for binding of cells transiently transfected with different members of the TNFR family, including TNFR2, LTβR, 4-1BB, CD27, CD30, BCMA, DR3, DR4, DR5, DR6, DcR1, DcR2, RANK, HveA, and AITR. […] The small shift (˜30%) seen when full length DR3 was used is likely due to the presence of low DR3-expressing cells while DR3 overexpressed cells undergone apoptosis.
# (§1) One million cells, in 0.1 ml of FACS buffer (PBS, 0.1% BSA, 0.1% NaN3), were incubated with 0.1-1 microgram of protein or antibody at RT for 15 min. The cells were washed with 3 ml of FACS buffer, reacted with biotinylated primary antibody, and stained with PE-conjugated secondary antibody at RT for 15 min. Cells were then washed again, resuspended in 0.5 microgram/ml of propidium iodide, and live cells were gated and analyzed on a FACScan using the CellQuest software (BD Biosciences).
# TF-1/SRE-SEAP cells = test: SEAP assay: TNF-gamma-beta induced SEAP in TF-1/SRE-SEAP reporter cells; type: cell-based; settings: without TNF-gamma-beta
# Protocol: (§2) Briefly, a poly-D-lysine coated 96-well plate is seeded with TF-1/SRE-SEAP cells (in RPMI+0.2% Fetal bovine serum) at 75,000 cells per well. […] Again cells were incubated overnight. After overnight incubation, conditioned media were collected and SEAP activity was determined using the SEAP Reporter Gene Assay available from Roche Molecular Biochemicals (Indianapolis, Ind.) according to the manufacturer's directions. Briefly, Conditioned media were diluted 1:4 into dilution buffer. Samples were incubated at 65C for 30 minutes to eliminate contaminating AP activity usually present in culture medium. 25 microliters of the heat-inactivated samples were mixed with equal volume of inactivation buffer (containing a mixture of differential alkaline phosphatase inhibitors). Following a 5-minute incubation at room temperature, 50 uL of alkaline phosphatase substrate (CSPD) was added to each well. Chemiluminescence signal was read 10-15 minutes later using a luminometer.
# (§3) The premyeloid cell line TF-1 was stably transfected with SRE/SEAP (Signal Response Element/Secreted Alkaline Phosphatase) reporter plasmid that responds to the SRE signal transduction pathway.
# TNF-gamma-beta [1] = target: T1, TNF-gamma-beta; test: Neutralization of TNF-gamma-beta induced SEAP production in TF-1/SRE reporter cells; type: cell-based; settings: TNF-gamma-beta at 200 ng/mL, TF1/SRE reporter cells
# Protocol: as §2
# These solutions were then incubated for 1 hour at room temperature. […] After the overnight incubation, the SEAP assay was performed as described above.
# as §3
# TNF-gamma-beta [2] = target: T2, TNF-gamma-beta; test: Inhibition of TNF-gamma-beta induced caspase activation in TF-1 cells; type: cell-based; settings: presence of cycloheximide
# Protocol: Briefly, cells growing in microtiter plates are induced to undergo apoptosis, causing an activation of caspase activities. Equal volume of a caspase substrate (Asp-Glu-Val-Asp-Rhodamine 110, or DEVD-R110) solution is then added and incubated for at least 1 hour. During this incubation, cells are being lysed and free R110 is released from the substrate. The level of free R110 is determined fluorimetrically, using a fluorescence reader with excitation filter 470-500 nm and emission filter 500-560 nm.
# A black 96-well plate with a clear bottom is seeded with 75,000 TF-1 cells in RPMI containing 1% fetal bovine serum and micrograms/milliliter cyclohexamide. […] Following the manufacturer's directions, an equal volume of 1×substrate solution containing 50 micromolar DEVD-R110 diluted in incubation buffer is added to each well. The 96-well plates are then incubated for 2 hours after which the plate is read in a fluorescence reader with an excitation filter at 485 nm and an emission filter at 535 nm.
# These solutions were then incubated for 1 hour at room temperature.
# The reagents were incubated for 1 hour at RT to allow the formation of protein-TNF-gamma-beta complexes and then added to the cells. Caspase activity was measured as described above.
# TNF-gamma-beta [3] = target: T2, TNF-gamma-beta; test: Inhibition of TNF-gamma-beta activation of NF-κB in 293T cells; type: cell-based
# Protocol: To avoid spontaneous apoptosis or NF-κB activation accompanied with DR3 overexpression, a limited amount of DR3-expression DNA that by itself minimally activated these pathways was used.
# 293T cells were transiently transfected using LipofectAMINE and PLUS reagents according to the manufacturer's instruction (Invitrogen). For reporter assays, 293T cells, at 5×10^5 cells/well, were seeded in 6-well plates and transfected with a total of 1 microgram of DNA. pC4 DNA was used as filler DNA. Conditioned supernatant was collected 24 hr post-transfection and assayed for secreted alkaline phosphatase (SEAP) activity using the Phospha-Light™ chemiluminescent reporter gene assay system (Tropix). pCMV-lacZ was used as internal control for transfection efficiency normalization.
# TNF-gamma-beta [4] = target: T1, TNF-gamma-beta; test: Coimmunoprecipitation of TNF-gamma-beta by TNFR-Fc proteins; type: binding
# Excerpt: The beads were then precipitated and washed extensively with PBST buffer (PBS, 0.5% Triton X-100) before boiled in SDS-sample buffer. Proteins were resolved on 4-20% Tris-Glycine gels (NOVEX), transferred to nitrocellulose membranes, and blotted with anti-Flag M2 monoclonal antibody (1 microgram/ml, Sigma) andhorseradish peroxidase (HRP)-conjugated goat anti-mouse IgG antibody (0.5 microgram/ml).
# TNF-gamma-beta [5] = target: T3, TNF-gamma-beta; test: FACS binding of receptor-Fc proteins to cells expressing full length TNF-gamma-beta
# Protocol: These cells were used to screen the Fc-fusion form of the extracellular domain of TNFR family members, including TNFR1, Fas, HveA, DR3, DR4, DR5, DR6, DcR1, DcR2, TR6, OPG, RANK, AITR, TAC1, CD40, and OX40. […] TR6 has been previously described as a decoy receptor (Pitti et al., Nature 396:699-703 (1998); Yu et al., J. Biol. Chem. 274:13733-6 (1999)) capable of competing with Fas and HveA for binding of FasL and LIGHT, respectively.
# Cells resistant to 0.5 mg/ml Genticin (Invitrogen) were selected and expanded. Expression of TNF-gamma-beta mRNA was confirmed by quantitative RT-PCR analysis and surface expression of TNF-gamma-beta protein confirmed by FACS analyses using TNF-gamma-beta monoclonal antibodies.
# as §1
# TNF-gamma-beta [6] = target: T2, TNF-gamma-beta; test: Inhibition of TNF-gamma-beta-mediated IFNγ secretion from T cells; type: cell-based; settings: costimulated T cells
# Protocol: The extent of the increase in IL-2 receptor expression is consistent with the moderate increase in IL-2 responsiveness compared with IL-2 itself.
# 1×10^5 cells/ml of purified T cells were seeded in a 24-well tissue culture plate that had been coated with anti-CD3 (0.3 microgram/ml) and anti-CD28 (5.0 microgram/ml) overnight at 4° C. […] ELISA assay for IFNγ, GM-CSF, IL-2 IL-4, IL-10 and TNFα were performed using kits purchased from R & D Systems. Recombinant human IL-2 (5 ng/ml) was used as a positive control. All samples were tested in duplicate and results were expressed as an average of duplicate samples plus or minus error.
# primary T cells = test: Caspase assay in PHA-activated primary T cells; type: cell-based, human; settings: presence or absence of cycloheximide
# Protocol: Overexpression of DR3 in cell lines induces capase activation (Chinnaiyan et al., Science 274:990-2 (1996); Kitson et al., Nature 384:372-5 (1996); Marsters et al., Curr. Biol. 6:1669-76 (1996); Bodmer et al., Immunity 6:79-88 (1997)). We tested whether TL1β could induce caspase activation in primary T cells.
# TF-1 cells or PHA-activated primary T cells were seeded at 75,000 cells/well in a black 96-well plate with clear bottom (Becton Dickinson) in RPMI Medium containing 1% fetal bovine serum (Biowhittaker). […] Caspase activity was measured directly in the wells by adding equal volume of a lysis buffer containing 25 μM DEVD-rodamine 110 (Roche Molecular Biochemicals), and allowed the reaction to proceed at 37C for 1 to 2 hours. Release of rodarmine 110 was monitored with a Wallac Victor2 fluorescence plate reader with excitation filter 485 nm and emission filter 535 nm.
molecule,measurement,setting,value
FLAG-TL1β: FLAG-tagged soluble form of the TL1 (aa 72-251) protein,binding to cells expressing full length or DD-deleted DR3,DR3,consisitently detected
"TR6.Fc: full length TR6 (aa 1-300) fused to the Fc domain of human IgG1 (protein, left off: a dimerising Fc or GST, full length TR6 (aa 1-300) fused to the Fc domain of human IgG1) VAETPTYPWRDAETGERLVCAQCPPGTFVQRPCRRDSPTTCGPCPPRHYTQFWNYLERCRYCNVLCGEREEEARACHATHNRACRCRTGFFAHAGFCLEHASCPPGAGVIAPGTPSQNTQCQPCPPGTFSASSSSSEQCQPHRNCTALGLALNVPGSSSHDTLCTSCTGFPLSTRVPGAEECERAVIDFVAFQDISIKRLQRLLQALEAPEGWGPTPRAGRAALQLKLRRRLTELLGAQDGALLVRLLQALRVARMPGLERSVRERFLPVH",SEAP activity of the Fc protein by itself,TF-1/SRE-SEAP cells,showed no activity
same,neutralization of TNF-gamma-beta SEAP activity by receptor-Fc,TNF-gamma-beta [1],can be neutralized by TR6.fc fusion protein in a dose dependent manner
same,inhibition of TNF-gamma-beta induced caspase activation,TNF-gamma-beta [2],inhibited by either DR3-Fc or TR6-Fc protein
same,inhibition of TNF-gamma-beta activation of NF-κB,TNF-gamma-beta [3],able to inhibit
same,inhibition of TNF-gamma-beta activation of NF-κB,TNF-gamma-beta [3]; listed as TR6-Fc,specifically inhibited
same,immunoprecipitation of TNF-gamma-beta,TNF-gamma-beta [4],can be used to immunoprecipitate TNF-gamma-beta
same,immunoprecipitation of TNF-gamma-beta,TNF-gamma-beta [4]; listed as TR6-Fc,specifically interacted with FLAG-TNF-gamma-beta
same,binding to cells expressing TNF-gamma-beta (FACS),TNF-gamma-beta [5],specifically bind cells transfected with TNF-gamma-beta
same,binding to cells expressing TNF-gamma-beta (FACS),TNF-gamma-beta [5]; listed as TR6-Fc,bound efficiently
same,inhibition of TNF-gamma-beta-mediated IFNγ secretion,TNF-gamma-beta [6],able to inhibit
"FasL: Fas ligand, positive control for caspase activation in T cells (protein, UniProt P48023 130-281, looked up) Tumor necrosis factor ligand …: QIGHPSPPPEKKELRKVAHLTGKSNSRSMPLEWEDTYGIVLLSGVKYKKGGLVINETGLYFVYSKVYFRGQSCNNLPLSHKVYMRNSKYPQDLVMMEGKMMSYCTTGQMWARSSYLGAVFNLTSADHLYVNVSELSLVNFEESQTFFGLYKL",caspase activity in PHA-activated T cells,primary T cells,readily measured
